# Biological target: T1, ikkb_human IKBKB (UniProt O14920)
# T1 sequence: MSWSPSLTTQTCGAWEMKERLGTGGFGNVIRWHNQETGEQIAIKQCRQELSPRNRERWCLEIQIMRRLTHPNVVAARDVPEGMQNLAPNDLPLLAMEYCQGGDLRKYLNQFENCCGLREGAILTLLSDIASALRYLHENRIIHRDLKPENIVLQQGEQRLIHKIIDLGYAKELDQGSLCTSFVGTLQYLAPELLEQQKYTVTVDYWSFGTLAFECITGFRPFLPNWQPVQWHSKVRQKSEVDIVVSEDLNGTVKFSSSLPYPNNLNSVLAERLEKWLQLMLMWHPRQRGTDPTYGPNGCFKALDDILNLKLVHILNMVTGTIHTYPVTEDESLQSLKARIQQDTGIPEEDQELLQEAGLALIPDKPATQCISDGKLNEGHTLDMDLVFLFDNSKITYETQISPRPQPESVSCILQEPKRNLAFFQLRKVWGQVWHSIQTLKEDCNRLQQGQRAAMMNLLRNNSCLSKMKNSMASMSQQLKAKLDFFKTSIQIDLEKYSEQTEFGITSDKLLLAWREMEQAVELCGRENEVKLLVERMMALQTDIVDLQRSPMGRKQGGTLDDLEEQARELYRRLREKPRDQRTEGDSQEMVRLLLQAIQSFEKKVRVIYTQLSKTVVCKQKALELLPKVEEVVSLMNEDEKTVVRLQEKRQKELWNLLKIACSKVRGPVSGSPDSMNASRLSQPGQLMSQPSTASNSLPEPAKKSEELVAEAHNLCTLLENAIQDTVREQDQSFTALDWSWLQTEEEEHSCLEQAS
substance,measurement,value
Small ribosomal subunit protein uS3 (Homo sapiens) (from UniProt P23396) S209A,effect of a mutation on the interaction,disrupting interaction
